Experimental data published in patent publication US20180217151A1.
One block for each substance: values may come before it.

What was measured:
[1] = biological target: recombinant CD27 antigen (not stated (the Fab labels human PBMCs)) (UniProt P26842); experiment: SPR (Biacore), recombinant antigen (extracellular domain) immobilized by amine coupling, Fab as analyte, 1:1 binding mass transfer model
[2] = biological target: CD27 antigen on human PBMCs (human) (UniProt P26842); experiment: flow cytometry, human PBMCs, biotinylated Fab 1 µg/mL, SA-APC, after five washing steps; median of control (background) 0.2; enables reversible labeling: no
CD27 antigen on human PBMCs (human), sequence (P26842 20-260): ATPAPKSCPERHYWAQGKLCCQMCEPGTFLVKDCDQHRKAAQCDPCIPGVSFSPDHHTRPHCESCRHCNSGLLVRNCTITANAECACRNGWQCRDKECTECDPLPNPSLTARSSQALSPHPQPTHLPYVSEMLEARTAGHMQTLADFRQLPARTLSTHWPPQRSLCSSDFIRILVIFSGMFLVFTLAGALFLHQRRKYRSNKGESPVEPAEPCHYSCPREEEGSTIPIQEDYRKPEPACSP

[3] = biological target: CD27 antigen on human PBMCs (human) (UniProt P26842); experiment: flow cytometry, human PBMCs, biotinylated Fab, SA-APC, after five washing steps; same gate above APC about 1
[4] = biological target: CD27 antigen on human PBMCs (human) (UniProt P26842); experiment: flow cytometry, human PBMCs, biotinylated Fab 1 µg/mL, SA-APC, after five washing steps; enables reversible labeling: no
[5] = biological target: CD27 antigen on human PBMCs (human) (UniProt P26842); experiment: flow cytometry, human PBMCs, biotinylated Fab 1 µg/mL, SA-APC, before washing; median of control (background) 0.2
[6] = biological target: CD27 antigen on human PBMCs (human) (UniProt P26842); experiment: flow cytometry, human PBMCs, biotinylated Fab, SA-APC, before washing; gate above APC about 1
[7] = biological target: recombinant CD14 antigen (not stated (the Fab labels human PBMCs)) (UniProt P08571); experiment: SPR (Biacore), recombinant antigen (extracellular domain) immobilized by amine coupling, Fab as analyte, 1:1 binding mass transfer model
recombinant CD14 antigen (not stated (the Fab labels human PBMCs)), sequence (P08571 20-352 limits assumed): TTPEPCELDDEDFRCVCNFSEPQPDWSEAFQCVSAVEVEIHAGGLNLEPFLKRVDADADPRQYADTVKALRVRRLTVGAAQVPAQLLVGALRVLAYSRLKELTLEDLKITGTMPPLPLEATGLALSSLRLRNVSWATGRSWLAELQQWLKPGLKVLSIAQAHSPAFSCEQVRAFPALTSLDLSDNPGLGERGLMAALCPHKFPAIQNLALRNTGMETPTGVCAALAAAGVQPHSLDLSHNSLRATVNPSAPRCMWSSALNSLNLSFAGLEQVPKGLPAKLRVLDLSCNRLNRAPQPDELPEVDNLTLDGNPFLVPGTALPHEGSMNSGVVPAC

[8] = biological target: CD14 antigen on human PBMCs (human) (UniProt P08571); experiment: flow cytometry, human PBMCs, biotinylated Fab 1 µg/mL, SA-APC, before washing; median of control (background) 0.25
CD14 antigen on human PBMCs (human), sequence (P08571 20-345): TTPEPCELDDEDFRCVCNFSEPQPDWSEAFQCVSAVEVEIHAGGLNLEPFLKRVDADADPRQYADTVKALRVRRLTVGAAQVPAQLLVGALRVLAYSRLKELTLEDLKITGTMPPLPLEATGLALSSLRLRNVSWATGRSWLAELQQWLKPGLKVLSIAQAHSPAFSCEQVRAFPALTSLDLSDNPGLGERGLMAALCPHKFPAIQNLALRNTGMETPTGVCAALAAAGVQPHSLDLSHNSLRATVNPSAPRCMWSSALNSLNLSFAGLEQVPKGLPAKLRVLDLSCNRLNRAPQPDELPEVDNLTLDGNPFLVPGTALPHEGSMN

[9] = biological target: CD14 antigen on human PBMCs (human) (UniProt P08571); experiment: flow cytometry, human PBMCs, biotinylated Fab 1 µg/mL, SA-APC, after five washing steps; median of control (background) 0.25; enables reversible labeling: yes
[10] = biological target: CD14 antigen on human PBMCs (human) (UniProt P08571); experiment: flow cytometry, human PBMCs, biotinylated Fab 1 µg/mL, SA-APC, after five washing steps; enables reversible labeling: yes
[11] = biological target: CD4 antigen on human PBMCs (human) (UniProt P01730); experiment: flow cytometry, human PBMCs, biotinylated Fab 1 µg/mL, SA-APC, after five washing steps; median of control (background) 0.3; enables reversible labeling: yes
[12] = biological target: recombinant CD4 antigen (not stated (the Fab labels human PBMCs)) (UniProt P01730); experiment: SPR (Biacore), recombinant antigen (extracellular domain) immobilized by amine coupling, Fab as analyte, 1:1 binding mass transfer model
[13] = biological target: CD4 antigen on human PBMCs (human) (UniProt P01730); experiment: flow cytometry, human PBMCs, biotinylated Fab, SA-APC, before washing; gate at APC about 5e1; the same gate in control C prints 0,06%-#
[14] = biological target: CD4 antigen on human PBMCs (human) (UniProt P01730); experiment: flow cytometry on human PBMCs, after 2 mM biotin and one washing step
[15] = biological target: CD4 antigen on human PBMCs (human) (UniProt P01730); experiment: flow cytometry, human PBMCs, biotinylated Fab 1 µg/mL, SA-APC, before washing; median of control (background) 0.3
[16] = biological target: CD4 antigen on human PBMCs (human) (UniProt P01730); experiment: flow cytometry on human PBMCs, Fab multimerized with anti-Biotin-PE, before disruption
[17] = biological target: CD4 antigen on human PBMCs (human) (UniProt P01730); experiment: flow cytometry, human PBMCs, biotinylated Fab 1 µg/mL, SA-APC, after five washing steps; enables reversible labeling: yes
[18] = biological target: recombinant CD62L antigen (not stated (the Fab labels human PBMCs)) (UniProt P14151); experiment: SPR (Biacore), recombinant antigen (extracellular domain) immobilized by amine coupling, Fab as analyte, 1:1 binding mass transfer model
recombinant CD62L antigen (not stated (the Fab labels human PBMCs)), sequence (P14151 39-332): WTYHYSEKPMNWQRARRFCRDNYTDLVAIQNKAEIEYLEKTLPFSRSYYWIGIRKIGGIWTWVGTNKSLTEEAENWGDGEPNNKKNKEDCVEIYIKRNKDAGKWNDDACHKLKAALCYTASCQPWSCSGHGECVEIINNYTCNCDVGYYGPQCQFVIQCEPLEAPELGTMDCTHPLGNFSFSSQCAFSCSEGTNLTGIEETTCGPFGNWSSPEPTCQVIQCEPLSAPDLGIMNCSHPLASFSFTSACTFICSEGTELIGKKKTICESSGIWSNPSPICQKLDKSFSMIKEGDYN

[19] = biological target: CD62L antigen on human PBMCs (human) (UniProt P14151); experiment: flow cytometry, human PBMCs, biotinylated Fab 1 µg/mL, SA-APC, before washing; median of control (background) 0.2
CD62L antigen on human PBMCs (human), sequence (P14151 39-372): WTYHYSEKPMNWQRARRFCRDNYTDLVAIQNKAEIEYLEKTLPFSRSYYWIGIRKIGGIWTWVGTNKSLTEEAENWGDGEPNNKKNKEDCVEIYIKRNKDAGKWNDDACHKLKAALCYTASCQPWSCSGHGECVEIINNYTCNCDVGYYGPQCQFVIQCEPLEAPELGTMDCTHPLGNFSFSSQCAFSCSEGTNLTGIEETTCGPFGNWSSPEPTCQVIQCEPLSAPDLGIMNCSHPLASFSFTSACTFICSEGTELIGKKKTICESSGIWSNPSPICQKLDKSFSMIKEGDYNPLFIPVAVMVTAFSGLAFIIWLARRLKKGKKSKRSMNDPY

[20] = biological target: CD62L antigen on human PBMCs (human) (UniProt P14151); experiment: flow cytometry, human PBMCs, biotinylated Fab 1 µg/mL, SA-APC, after five washing steps; median of control (background) 0.2; enables reversible labeling: yes
[21] = biological target: CD62L antigen on human PBMCs (human) (UniProt P14151); experiment: flow cytometry, human PBMCs, biotinylated Fab 1 µg/mL, SA-APC, after five washing steps; enables reversible labeling: yes

recombinant CD27 antigen (not stated (the Fab labels human PBMCs)), sequence (P26842 20-191): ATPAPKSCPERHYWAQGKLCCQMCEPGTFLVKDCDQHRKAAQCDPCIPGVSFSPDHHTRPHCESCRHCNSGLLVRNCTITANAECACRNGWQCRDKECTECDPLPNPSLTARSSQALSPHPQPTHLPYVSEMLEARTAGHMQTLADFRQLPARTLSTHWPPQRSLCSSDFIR

Kd [1]: 0.96 nM
koff [1]: 0.00026 s⁻¹
kon [1]: 270000 M⁻¹ s⁻¹
median value after Fab removal (ii) [2]: 6.3
percent of cells in gate P1\P2\P3, column LR [3]: 40.2%
% median value of the detected label after Fab removal (before = 100%) [4]: 64%
median value (i) [5]: 9.9
percent of cells in gate P1\P2\P3, column L [6]: 38.2%
Substance: M-T271 pFab

Kd [7]: 330 nM
koff [7]: 0.24 s⁻¹
kon [7]: 730000 M⁻¹ s⁻¹
median value (i) [8]: 152
median value after Fab removal (ii) [9]: 1
% median value of the detected label after Fab removal (before = 100%) [10]: 0.7%
Substance: TUK4 pFab

median value after Fab removal (ii) [11]: 0.37
Kd [12]: 16 nM
koff [12]: 0.016 s⁻¹
kon [12]: 1e+06 M⁻¹ s⁻¹
percent of cells in gate P5, column L [13]: 26.9%
median value of the PE signal after disruption with free biotin and washing [14]: 0.2
median value (i) [15]: 49
median value of the PE signal, labeled [16]: 16.4
% median value of the detected label after Fab removal (before = 100%) [17]: 0.8%
Substance: M-T466 pFab

Kd [18]: 110 nM
koff [18]: 0.068 s⁻¹
kon [18]: 640000 M⁻¹ s⁻¹
median value (i) [19]: 35
median value after Fab removal (ii) [20]: 0.82
% median value of the detected label after Fab removal (before = 100%) [21]: 2.3%
Substance: 145/15 pFab
